Results: publication PMC8631942 (eLife, 2021)

Assays:
[1] = molecular target: T1, His10-BTLA^ICD BTLA^FFFY, pre-phosphorylated (human, UniProt Q7Z6A9 190-289, Y226F | Y243F | Y257F, pre-phosphorylated with Fyn; lone tyrosine (Y282) in the ITSM); assay: SPR; OpenSPR (Nicoya); pre-phosphorylated His10-tagged PD-1 or BTLA ICD immobilised on a Ni sensor chip (about 1500 RU); SH2 injected at 20-1000 nM, 20 μl/min; 20 mM HEPES, 150 mM NaCl, 5 mM imidazole, 0.05% Tween-20, 10% glycerol, pH 7.5; equilibrium analysis (Evaluate EC50, TraceDrawer); settings: both partners purified
T1 construct: BTLA intracellular domain, human, aa 190-289; triple-tyrosine mutant; Monomeric fraction of the gel filtration was used; also called BTLA-ITSM; source: E. coli (pET28A), purified (Ni-NTA, gel filtration); phosphorylated with purified Fyn; not shown: His10, N-terminal, kept
T1 sequence (looked up): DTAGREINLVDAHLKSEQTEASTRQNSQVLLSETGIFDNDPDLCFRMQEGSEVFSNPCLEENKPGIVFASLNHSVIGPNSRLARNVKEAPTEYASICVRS

[2] = molecular target: T2, His10-PD-1^ICD PD-1^FY, pre-phosphorylated (human, UniProt Q15116 194-288, Y223F, pre-phosphorylated with Fyn; the only tyrosine is in the ITSM (Y248)); assay: as above; settings: both partners purified
T2 construct: Monomeric fraction of the gel filtration was used; also called PD-1-ITSM; phosphorylated PD-1-ITSM; source: E. coli (pET28A), purified (Ni-NTA, gel filtration); phosphorylated with purified Fyn; not shown: His10, N-terminal, kept
T2 sequence (looked up): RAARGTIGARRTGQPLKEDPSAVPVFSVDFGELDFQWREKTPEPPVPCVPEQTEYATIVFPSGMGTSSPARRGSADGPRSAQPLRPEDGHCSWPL

B1: SNAP-SHP1-cSH2 (domain or fragment)
chain: WYHGHMSGGQAETLLQAKGEPWTFLVRESLSQPGDFVLSVLSDQPKAGPGSPLRVTHIKVMCEGGRYTVGGLETFDSLTDLVEHFKKTGIEEASGAFVYLRQPY
Question: For B1, which Kd [1] is on record?
Answer: Its Kd is 860 nM.

Question: What about the Kd [2] of the same binder?
Answer: Its Kd is 1700 nM.
